Test results published in PMC1906764.

T1: PPT1 F85del, P50897
T1 chain: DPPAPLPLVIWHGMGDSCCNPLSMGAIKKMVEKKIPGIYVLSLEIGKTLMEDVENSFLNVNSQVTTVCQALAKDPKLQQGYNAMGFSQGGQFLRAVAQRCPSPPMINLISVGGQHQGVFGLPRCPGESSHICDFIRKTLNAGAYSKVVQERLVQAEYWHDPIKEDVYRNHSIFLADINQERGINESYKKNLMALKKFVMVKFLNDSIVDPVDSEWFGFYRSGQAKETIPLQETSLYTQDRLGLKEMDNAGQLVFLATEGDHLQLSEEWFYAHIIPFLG


Assays:
PPT1 F85del, P50897 = biological target: T1, PPT1 F85del, P50897; test: GFP pull-down (co-immunoprecipitation with anti-GFP-agarose beads, anti-PPT1 immunoblot, quantified); settings: chain shown with the change; COS-1 cells, lysed 48 h post-transfection; single experiment; parent: est. 100; read off a plot
[1] = 4-MU-6S-Palm-βGlc fluorometric assay, COS-1 lysates; settings: glycan lost; control: wild type
[2] = 35S-Cys pulse-chase, immunoprecipitation from COS-1 media; settings: glycan lost; control: wild type
[3] = immunofluorescence, LAMP-1 co-staining, transfected cells; settings: glycan lost; control: wild type

percent of parent (PPT1 F85del, P50897)	Binder	enzymatic activity, percent of wt [1]	expression_or_secretion [2]	localisation_or_trafficking [3]	enzymatic_activity, percent_of_wt [1]
150 % of WT	palmitoyl protein thioesterase 1 (PPT1), wild type, P50897 F85del (protein) DPPAPLPLVIWHGMGDSCCNPLSMGAIKKMVEKKIPGIYVLSLEIGKTLMEDVENSFLNVNSQVTTVCQALAKDPKLQQGYNAMGFSQGGQFLRAVAQRCPSPPMINLISVGGQHQGVFGLPRCPGESSHICDFIRKTLNAGAYSKVVQERLVQAEYWHDPIKEDVYRNHSIFLADINQERGINESYKKNLMALKKFVMVKFLNDSIVDPVDSEWFGFYRSGQAKETIPLQETSLYTQDRLGLKEMDNAGQLVFLATEGDHLQLSEEWFYAHIIPFLG				
	palmitoyl protein thioesterase 1 (PPT1): S214A (protein) parent chain: MASPGCLWLLAVALLPWTCASRALQHLDPPAPLPLVIWHGMGDSCCNPLSMGAIKKMVEKKIPGIYVLSLEIGKTLMEDVENSFFLNVNSQVTTVCQALAKDPKLQQGYNAMGFSQGGQFLRAVAQRCPSPPMINLISVGGQHQGVFGLPRCPGESSHICDFIRKTLNAGAYSKVVQERLVQAEYWHDPIKEDVYRNHSIFLADINQERGINESYKKNLMALKKFVMVKFLNDSIVDPVDSEWFGFYRSGQAKETIPLQETSLYTQDRLGLKEMDNAGQLVFLATEGDHLQLSEEWFYAHIIPFLG	31%	no change	no change	
	palmitoyl protein thioesterase 1 (PPT1): S199A (protein) parent chain: MASPGCLWLLAVALLPWTCASRALQHLDPPAPLPLVIWHGMGDSCCNPLSMGAIKKMVEKKIPGIYVLSLEIGKTLMEDVENSFFLNVNSQVTTVCQALAKDPKLQQGYNAMGFSQGGQFLRAVAQRCPSPPMINLISVGGQHQGVFGLPRCPGESSHICDFIRKTLNAGAYSKVVQERLVQAEYWHDPIKEDVYRNHSIFLADINQERGINESYKKNLMALKKFVMVKFLNDSIVDPVDSEWFGFYRSGQAKETIPLQETSLYTQDRLGLKEMDNAGQLVFLATEGDHLQLSEEWFYAHIIPFLG		abolishes	decreases	
	palmitoyl protein thioesterase 1 (PPT1): S234A (protein) parent chain: MASPGCLWLLAVALLPWTCASRALQHLDPPAPLPLVIWHGMGDSCCNPLSMGAIKKMVEKKIPGIYVLSLEIGKTLMEDVENSFFLNVNSQVTTVCQALAKDPKLQQGYNAMGFSQGGQFLRAVAQRCPSPPMINLISVGGQHQGVFGLPRCPGESSHICDFIRKTLNAGAYSKVVQERLVQAEYWHDPIKEDVYRNHSIFLADINQERGINESYKKNLMALKKFVMVKFLNDSIVDPVDSEWFGFYRSGQAKETIPLQETSLYTQDRLGLKEMDNAGQLVFLATEGDHLQLSEEWFYAHIIPFLG		decreases	decreases	
	palmitoyl protein thioesterase 1 (PPT1): S199A + S214A (protein) parent chain: MASPGCLWLLAVALLPWTCASRALQHLDPPAPLPLVIWHGMGDSCCNPLSMGAIKKMVEKKIPGIYVLSLEIGKTLMEDVENSFFLNVNSQVTTVCQALAKDPKLQQGYNAMGFSQGGQFLRAVAQRCPSPPMINLISVGGQHQGVFGLPRCPGESSHICDFIRKTLNAGAYSKVVQERLVQAEYWHDPIKEDVYRNHSIFLADINQERGINESYKKNLMALKKFVMVKFLNDSIVDPVDSEWFGFYRSGQAKETIPLQETSLYTQDRLGLKEMDNAGQLVFLATEGDHLQLSEEWFYAHIIPFLG		abolishes		decreases
